B1: antibody 6-90 (antibody, mouse IgM, V domains shown)
VH: EVELQQFGIEMVKPGASVKISCKASGYIFTDYHMDWVRQSHGKSLEWIGDIDPKYDRVTYNQKFKGKASLTADKSSSTAYMELRSLTSEDTAVYYCAKTGAYGDYLAYWGQGTLVTVSA
VL: DLVMTQTPLSLPVSLGDQASISCRSSQSLVHSDGNTYFYWYLQKPGQSPKLLIYKVSNRFSGVPDRFSAGGSGTYFTLKISRVEAEDLGVYFCSQTTHFPPTFGGGTKLEIKR
notes: Mouse IgM, kappa from a hybridoma; tested as hybridoma culture supernatant
B2: antibody 55-31 (antibody, mouse IgM, V domains shown)
VH: QVQLQQPGAELVKPGTSVKLSCKASGYNFTSYWINWVKLRPGQGLEWIGDIYPGSGSTNYNEKFKSKATLTVDTSSSTAYMQLSSLASEDSALYYCARSAYRYDWFAYWGQGTLVTVSA
VL: DIQMTQSPASLSVSVGETVTITCRASENIYSNLAWYQQKQGKSPQLLVYAATNLADGVPSRFSGSGSGTQYSLKINSLQSEDFGSYYCQHFWGTPYTFGGGTKLEIKR
notes: as for B1
B3: antibody 122-72 (antibody, V domains shown)
VH: EVQLVESGGGLVQPKGSLKLSCAASGFTFNTYAMNWVRQAPGKGLEWVARIRSKSNNYATYYADSVKDRFTISRDDSQSMLYLQMNNLKTEDTAMYYCVAYGSRNYWGQGTTLTVSS
VL: DIVMTQSPSSLTVTAGEKVTMSCKSSQSLLNSGNQKNYLTWYQQKPGQPPKLLIYWASTRESGVPDRFTGSGSGTDFTLTISSVQAEDLAVYYCQNDYSYPYTFGGGTKLEIKR
notes: Mouse IgM, kappa from a hybridoma; tested as hybridoma culture supernatant; Antibody 60-43 is said to have the same CDRs

What was measured:
[1] = biological target: T1, human transferrin receptor expressed by normal human cells (RBC, PMN, lymphocytes, monocytes, platelets, … (human, UniProt P02786 1-760)); assay: FACS, monocytes, donor D102, 1/10x
T1 construct: The assay is whole-cell FACS on normal donor cells; also called TfR on normal cells
T1 sequence (P02786 whole entry G142S): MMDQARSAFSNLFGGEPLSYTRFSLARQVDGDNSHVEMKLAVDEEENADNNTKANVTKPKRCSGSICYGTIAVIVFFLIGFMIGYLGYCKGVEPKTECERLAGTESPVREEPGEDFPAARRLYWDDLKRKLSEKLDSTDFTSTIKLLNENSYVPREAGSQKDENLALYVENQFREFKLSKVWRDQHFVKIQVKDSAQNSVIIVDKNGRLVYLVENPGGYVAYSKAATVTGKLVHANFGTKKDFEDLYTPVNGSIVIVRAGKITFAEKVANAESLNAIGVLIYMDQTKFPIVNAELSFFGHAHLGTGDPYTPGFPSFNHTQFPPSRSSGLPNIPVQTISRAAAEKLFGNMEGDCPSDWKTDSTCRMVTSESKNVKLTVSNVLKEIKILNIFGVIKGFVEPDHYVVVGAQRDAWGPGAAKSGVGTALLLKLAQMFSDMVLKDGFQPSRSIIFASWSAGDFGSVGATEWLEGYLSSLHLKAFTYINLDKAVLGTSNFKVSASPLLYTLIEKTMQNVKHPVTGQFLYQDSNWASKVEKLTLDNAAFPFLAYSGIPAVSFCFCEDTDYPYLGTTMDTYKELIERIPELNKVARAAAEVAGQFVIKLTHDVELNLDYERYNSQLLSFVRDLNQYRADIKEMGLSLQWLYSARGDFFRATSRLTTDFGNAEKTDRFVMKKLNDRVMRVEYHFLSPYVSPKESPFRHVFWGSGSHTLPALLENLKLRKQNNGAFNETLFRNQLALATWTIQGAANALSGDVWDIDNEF
Method: (§1) The hyper-immuned serum (Hyp-serum) or the corresponding cell marker antibodies for certain cell types were included as positive controls.
(§2) 1×10⁵ cells were seeded in each well of a v-bottomed 96-well plate and incubated with 50 μl of hybridoma culture supernatant at 1× and 10× dilution, or isotype control antibody mouse IgM, κ (BD™, Cat. No. 557275) at concentration of 1 μg/ml. A 300× dilution of human cell hyper-immune serum was used as binding positive control for all cell types. PE-conjugated anti-human CD41a (Southern Biotech™, Cat. No. 9391-09) was used as a positive control for staining human platelets. Anti-sialyl Lewis x antibody (Millipore™, Cat. No. MAB2096) was used as a positive control for staining human PMN. Anti-human CD31 (Hycult™, Cat. No. HM2039) was used as a positive control for staining HUVEC. After 30 minutes incubation at 4° C., cells were washed twice with 200 μl FACS buffer (1×PBS containing 1% FBS), stained with 50 μl of 1 μg/ml goat F(ab′)2-anti-mouse IgG(H+L)-PE (Southern Biotech™, Cat. No. 1032-09) or 1 μg/ml goat F(ab′)2-anti-mouse IgM(H+L)-PE (Southern Biotech™, Cat. No. 1022-09) in FACS buffer. After 30 minutes of incubation at 4° C., cells were washed twice with FACS buffer and analyzed by flow cytometry (BD LSR, BD Life Sciences).

[2] = biological target: human transferrin receptor expressed by nonhematopoietic cancer cells (human) (UniProt P02786); assay: FACS, SU.86.86 cells, 1X
Sequence of human transferrin receptor expressed by nonhematopoietic cancer cells (human) (P02786 whole entry G142S): as above

[3] = biological target: human transferrin receptor expressed by nonhematopoietic cancer cells (human) (UniProt P02786); assay: FACS, WiDr cells, 1/5X
[4] = biological target: human transferrin receptor expressed by nonhematopoietic cancer cells (human) (UniProt P02786); assay: FACS, MDA-MB-453 cells, 1/5X
[5] = biological target: T1, human transferrin receptor expressed by …; assay: FACS, lymphocytes, donor D102, 1/10x
Method: (§3) Preparation of PBMC and PMN: The whole blood was diluted with an equal volume of PBS and mixed with 1/10 volume of 15% Dextran solution. […] After centrifugation at 2200 rpm for 15 min (rotor: SORVALL, PN11788 and centrifuge: SORVALL, RT7), PBMC concentrated in the interface, were collected and washed with large volumes of FACS buffer (2% FBS in PBS) for future use. The PMN-rich pellet was collected, from which residual RBC was removed by hypotonic lysis in 0.2% NaCl.
as §2

[6] = biological target: T1, human transferrin receptor expressed by …; assay: FACS, platelets, donor D016, 1x
Method: as §1, §2

[7] = biological target: human transferrin receptor expressed by nonhematopoietic cancer cells (human) (UniProt P02786); assay: FACS, HEC-1-A cells, 1X
[8] = biological target: T1, human transferrin receptor expressed by …; assay: FACS, platelets, donor D102, 1/10x
Method: as §1, §2

[9] = biological target: human transferrin receptor expressed by nonhematopoietic cancer cells (human) (UniProt P02786); assay: FACS, COLO205 cells, 1/5X
[10] = biological target: T1, human transferrin receptor expressed by …; assay: FACS, platelets, donor D102, 1x
Method: as §1, §2

[11] = biological target: human transferrin receptor expressed by nonhematopoietic cancer cells (human) (UniProt P02786); assay: FACS, MDA-MB-453 cells, 1X
[12] = biological target: T1, human transferrin receptor expressed by …; assay: FACS, monocytes, donor D014, 1x
Method: as §1, §2

[13] = biological target: T1, human transferrin receptor expressed by …; assay: FACS, platelets, donor D014, 1x
Method: as §1, §2

[14] = biological target: T1, human transferrin receptor expressed by …; assay: FACS, lymphocytes, donor D005, 1x
Method: as §1, §2

[15] = biological target: human transferrin receptor expressed by nonhematopoietic cancer cells (human) (UniProt P02786); assay: FACS, OMC-3 cells, 1/5X
[16] = biological target: human transferrin receptor expressed by nonhematopoietic cancer cells (human) (UniProt P02786); assay: FACS, H358 cells, 1/10X
[17] = biological target: human transferrin receptor expressed by nonhematopoietic cancer cells (human) (UniProt P02786); assay: FACS, KLE cells, 1/5X
[18] = biological target: human transferrin receptor expressed by nonhematopoietic cancer cells (human) (UniProt P02786); assay: FACS, KLE cells, 1X
[19] = biological target: human transferrin receptor expressed by nonhematopoietic cancer cells (human) (UniProt P02786); assay: FACS, OMC-3 cells, 1X
[20] = biological target: T1, human transferrin receptor expressed by …; assay: FACS, PMN, donor D016, 1/10x
Method: as §3, §2

[21] = biological target: T1, human transferrin receptor expressed by …; assay: FACS, monocytes, donor D005, 1x
Method: as §3, §2

[22] = biological target: human transferrin receptor expressed by nonhematopoietic cancer cells (human) (UniProt P02786); assay: FACS, Panc02.03B cells, 1X
[23] = biological target: T1, human transferrin receptor expressed by …; assay: FACS, RBC, donor D016, 1x
Method: as §1, §2

[24] = biological target: human transferrin receptor expressed by nonhematopoietic cancer cells (human) (UniProt P02786); assay: FACS, SK-OV-3 cells, 1/5X

% positive cell binding [1] | MFI [2] | MFI [3] | MFI [4] | % positive cell binding [5] | % positive cell binding [6] | MFI [7] | % positive cell binding [8] | MFI [9] | % positive cell binding [10] | MFI [11] | % positive cell binding [12] | % positive cell binding [13] | % positive cell binding [14] | MFI [15] | MFI [16] | MFI [17] | % positive cell binding [20] | % positive cell binding [21] | % positive cell binding [23] | further results | Binder
2% | 3950 MFI | 1080 MFI | 141 MFI | 2% | < 1% | 57 MFI | < 1% | 6160 MFI | < 1% | 147 MFI | < 1% | < 1% | < 1% | 2150 MFI | 1600 MFI | 556 MFI | < 1% | 2% | 1% | MFI [18]: 890 MFI; MFI [19]: 3140 MFI; MFI [22]: 5910 MFI | B1
1% | 154 MFI |  | 65 MFI | 1% | < 1% | 1490 MFI | < 1% |  | < 1% | 81 MFI | < 1% | < 1% | < 1% | 179 MFI | 295 MFI | 87 MFI | < 1% | 4% | 1% | MFI [24]: 1970 MFI; MFI [18]: 136 MFI; MFI [19]: 214 MFI; MFI [22]: 574 MFI | B2
4% |  | 2460 MFI | 16 MFI | 2% | < 1% |  | < 1% | 6340 MFI | < 1% |  | < 1% | < 1% | < 1% | 3040 MFI | 2460 MFI |  | 1% | 2% | 1% | MFI [24]: 381 MFI | B3

From patent publication US20130177579A1 (BIOALLIANCE C V, published 2013)
